Laboratory results from article PMC4610397 (Cellular and molecular bioengineering, 2015).
Ends that are not written are not given here. * marks the point of attachment. LacNAc = N-acetyllactosamine (disaccharide N-linked to the Asn side chain), CC(=O)N[C@@H]1[C@@H](O)[C@H](O[C@@H]2O[C@H](CO)[C@H](O)[C@H](O)[C@H]2O)[C@@H](CO)O[C@H]1*; βGlcNAc = CC(=O)N[C@@H]1[C@@H](O)[C@H](O)[C@@H](CO)O[C@H]1*

B1: GlcNAc-Q11 (peptide)
peptide: N(βGlcNAc)SGSGQQKFQFQFEQQ-NH2
B2: LacNAc-Q11 (peptide)
peptide: N(LacNAc)SGSGQQKFQFQFEQQ-NH2

Key:
[1] = biological target: the molecule itself; experiment: circular dichroism + transmission electron microscopy
Q11 = biological target: T1, Q11; experiment: co-sedimentation
T1 peptide: Ac-QQKFQFQFEQQ-NH2

Binder	binding result [1]	binding result (Q11)
B1	binds	binds
B2	binds	–
